Measured values reported in publication PMC5840032 (Bioorganic & medicinal chemistry, 2017).

Molecular target: anthrax lethal factor (LF) protease (UniProt P15917 34-809)
Experiment: enzyme inhibition assay

anthrax lethal factor (LF) protease, sequence (P15917 34-809): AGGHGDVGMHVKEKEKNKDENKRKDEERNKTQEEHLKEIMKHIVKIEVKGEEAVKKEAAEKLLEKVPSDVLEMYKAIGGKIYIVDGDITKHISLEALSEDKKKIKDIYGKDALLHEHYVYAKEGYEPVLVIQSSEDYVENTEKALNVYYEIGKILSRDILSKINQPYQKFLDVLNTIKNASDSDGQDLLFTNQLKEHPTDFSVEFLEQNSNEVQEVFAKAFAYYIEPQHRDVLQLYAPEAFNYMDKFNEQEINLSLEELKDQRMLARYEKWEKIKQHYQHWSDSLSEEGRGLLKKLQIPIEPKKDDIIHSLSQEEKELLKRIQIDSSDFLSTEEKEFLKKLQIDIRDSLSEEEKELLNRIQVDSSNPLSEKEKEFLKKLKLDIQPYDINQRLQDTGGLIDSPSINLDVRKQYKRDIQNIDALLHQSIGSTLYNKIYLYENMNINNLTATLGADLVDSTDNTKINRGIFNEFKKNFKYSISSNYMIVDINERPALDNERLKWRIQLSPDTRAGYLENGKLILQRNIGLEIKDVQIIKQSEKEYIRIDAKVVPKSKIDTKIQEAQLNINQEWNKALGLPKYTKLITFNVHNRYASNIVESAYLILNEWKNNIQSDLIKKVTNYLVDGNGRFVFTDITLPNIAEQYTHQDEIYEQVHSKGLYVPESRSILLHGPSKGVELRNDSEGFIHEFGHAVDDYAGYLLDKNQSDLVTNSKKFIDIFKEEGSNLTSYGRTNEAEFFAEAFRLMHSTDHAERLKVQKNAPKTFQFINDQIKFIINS

For GFCRCACLHGVCRCICTR (not fully specified; backbone-cyclized; three disulfide bonds) [RTD-1 analog clone #14], the Ki was 946 ± 47 nM.

GFCRCPCSRYGCWCICTR (not fully specified; backbone-cyclized; three disulfide bonds) [RTD-1 analog clone #52] was tested, and the Ki was 946 ± 58 nM.
